This passage reports Kd results from US20230032737A1 (University of Pennsylvania, published 2023).

As a reminder, the Kd is a measure of binding affinity in units of concentration. Low values mean tighter binding, high ones weaker binding.

This assay addresses T1, purified human factor D (from human plasma) (human, UniProt P00746 26-253).
T1 construct: mature; Also used here for the native factor D of normal human serum in the functional assays; also called human fD; fD
The experiment in a line: SPR (Biacore-2000), purified human factor D amine-coupled to CM4 chip. How it is done: FIG. 8 depicts the results of antigen binding affinity measurements for 1F10-5 mAb using Biacore. Purified human factor D was coupled onto CM4 chip using the amine coupling method. Biacore analysis was performed on a Biacore-2000 instrument. The chip was regenerated between each binding using 50 mM NaOH.
In general terms: SPR reads the build-up and loss of mass on a sensor chip optically.

T1 sequence (P00746 26-253): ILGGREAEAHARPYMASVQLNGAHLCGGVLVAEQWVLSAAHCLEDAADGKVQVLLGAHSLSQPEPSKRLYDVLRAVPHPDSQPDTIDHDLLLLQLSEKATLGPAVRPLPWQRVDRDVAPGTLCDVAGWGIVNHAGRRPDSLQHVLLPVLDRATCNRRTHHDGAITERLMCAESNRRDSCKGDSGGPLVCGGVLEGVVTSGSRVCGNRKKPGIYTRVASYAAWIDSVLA

B1: mAb 1F10-5 (murine anti-human factor D monoclonal antibody) (antibody, V domains shown)
VH: QIQLVQSGPELKKPGETVKISCKASGYTFTNFEMNWVKQAPGQGLNWMGCINTYTGDPIYADDFRGRFAFSLETSASTAYLQINNLKNEDMATYFCSREGGGDYWGQGTTLTVSS
VL: SIVMTQTPKFLLVSAGDRVTITCKASQSVTNDVAWYQQKPGQSPRLLIYHASNRYTGVPERFTGSGYGTDFTFTINTVQAEDLAVYFCQQDYSSPRTFGGGTKLEIKR
notes: Mouse hybridoma antibody; also called 1F10-mAb; IF10-5
Take B1: the Kd is 0.15 nM.
